Results reported in the supplement of paper PMC10065799, “High-throughput profiling of sequence recognition by tyrosine kinases and SH2 domains using bacterial peptide display” (eLife, 2023).

Assays:
[1] = test system: AncSZ; assay: phosphorylation enrichment, bacterial display (enrichment ratio); higher = better substrate or ligand; peptides without Tyr show the background
[2] = molecular target: EPHB1 (UniProt P54762); assay: as above
[3] = molecular target: EPHB2 (UniProt P29323); assay: as above
Sequence of EPHB2 (P29323 whole entry, looked up): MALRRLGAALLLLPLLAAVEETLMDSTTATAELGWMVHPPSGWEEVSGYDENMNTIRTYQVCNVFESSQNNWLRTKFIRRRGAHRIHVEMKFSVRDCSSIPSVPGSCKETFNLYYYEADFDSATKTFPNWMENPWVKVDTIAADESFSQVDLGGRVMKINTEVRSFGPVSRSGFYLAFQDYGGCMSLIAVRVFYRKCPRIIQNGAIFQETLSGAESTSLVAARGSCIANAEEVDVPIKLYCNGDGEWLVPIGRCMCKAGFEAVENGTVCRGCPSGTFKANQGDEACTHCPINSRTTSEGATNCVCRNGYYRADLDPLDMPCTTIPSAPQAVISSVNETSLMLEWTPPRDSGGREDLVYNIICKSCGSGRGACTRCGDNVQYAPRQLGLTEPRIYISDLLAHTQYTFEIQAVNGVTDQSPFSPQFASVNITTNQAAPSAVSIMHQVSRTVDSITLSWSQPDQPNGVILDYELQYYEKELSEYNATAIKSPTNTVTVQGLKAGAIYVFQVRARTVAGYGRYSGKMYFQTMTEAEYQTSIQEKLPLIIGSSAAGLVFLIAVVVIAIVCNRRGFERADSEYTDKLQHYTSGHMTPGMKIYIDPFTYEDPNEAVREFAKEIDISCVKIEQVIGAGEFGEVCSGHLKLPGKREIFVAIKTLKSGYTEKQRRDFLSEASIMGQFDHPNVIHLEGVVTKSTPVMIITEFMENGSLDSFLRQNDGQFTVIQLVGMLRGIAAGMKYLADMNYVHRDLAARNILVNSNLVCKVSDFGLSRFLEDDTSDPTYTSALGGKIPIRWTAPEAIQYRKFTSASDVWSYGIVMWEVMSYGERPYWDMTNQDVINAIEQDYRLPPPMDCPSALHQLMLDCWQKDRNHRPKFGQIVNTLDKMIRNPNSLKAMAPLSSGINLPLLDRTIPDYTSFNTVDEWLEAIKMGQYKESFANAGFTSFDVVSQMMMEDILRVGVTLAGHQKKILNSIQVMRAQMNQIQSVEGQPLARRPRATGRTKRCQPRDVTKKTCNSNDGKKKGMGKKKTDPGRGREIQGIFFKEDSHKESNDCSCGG

[4] = molecular target: FGFR1 (UniProt P11362); assay: as above
Sequence of FGFR1 (P11362 whole entry, looked up): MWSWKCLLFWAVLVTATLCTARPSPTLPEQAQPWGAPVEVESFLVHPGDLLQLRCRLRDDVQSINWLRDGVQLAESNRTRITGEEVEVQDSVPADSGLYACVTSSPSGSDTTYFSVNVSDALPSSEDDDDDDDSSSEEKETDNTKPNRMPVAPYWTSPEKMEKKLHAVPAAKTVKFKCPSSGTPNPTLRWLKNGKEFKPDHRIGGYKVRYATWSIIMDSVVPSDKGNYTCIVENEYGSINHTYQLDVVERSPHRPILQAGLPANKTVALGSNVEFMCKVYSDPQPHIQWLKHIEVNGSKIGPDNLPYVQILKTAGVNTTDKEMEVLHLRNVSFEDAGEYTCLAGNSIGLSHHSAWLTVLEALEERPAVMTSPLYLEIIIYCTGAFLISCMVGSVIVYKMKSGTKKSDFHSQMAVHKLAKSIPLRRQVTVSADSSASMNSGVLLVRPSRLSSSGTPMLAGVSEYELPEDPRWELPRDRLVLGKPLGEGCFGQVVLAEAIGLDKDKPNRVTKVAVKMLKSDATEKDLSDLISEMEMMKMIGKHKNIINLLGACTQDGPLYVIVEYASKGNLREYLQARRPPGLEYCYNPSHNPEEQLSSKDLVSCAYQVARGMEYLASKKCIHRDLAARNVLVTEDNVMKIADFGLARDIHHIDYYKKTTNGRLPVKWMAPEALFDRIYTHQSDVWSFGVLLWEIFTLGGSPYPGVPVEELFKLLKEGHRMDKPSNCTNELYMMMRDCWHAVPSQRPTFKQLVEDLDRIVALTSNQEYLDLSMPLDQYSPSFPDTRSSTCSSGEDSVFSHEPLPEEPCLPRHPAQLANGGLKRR

[5] = molecular target: FGFR3 (UniProt P22607); assay: as above
[6] = test system: Fer (mouse); assay: as above
[7] = molecular target: Fes (UniProt P07332); assay: as above
[8] = molecular target: Fyn (UniProt P06241); assay: as above
Sequence of Fyn (P06241 whole entry, looked up): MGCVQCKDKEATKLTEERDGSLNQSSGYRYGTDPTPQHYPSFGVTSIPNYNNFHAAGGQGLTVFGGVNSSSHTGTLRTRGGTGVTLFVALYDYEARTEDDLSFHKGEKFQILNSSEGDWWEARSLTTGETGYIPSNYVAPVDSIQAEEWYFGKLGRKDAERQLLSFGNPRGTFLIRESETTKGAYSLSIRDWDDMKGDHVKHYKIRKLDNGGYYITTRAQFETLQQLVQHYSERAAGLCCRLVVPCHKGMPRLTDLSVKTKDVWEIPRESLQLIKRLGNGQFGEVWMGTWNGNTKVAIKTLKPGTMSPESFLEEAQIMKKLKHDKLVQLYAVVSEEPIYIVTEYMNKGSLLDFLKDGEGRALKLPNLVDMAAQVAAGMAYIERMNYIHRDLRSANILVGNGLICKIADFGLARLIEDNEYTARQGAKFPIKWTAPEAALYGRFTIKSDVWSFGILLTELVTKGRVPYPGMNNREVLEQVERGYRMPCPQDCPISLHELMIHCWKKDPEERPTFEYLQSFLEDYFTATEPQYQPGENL

[9] = molecular target: Hck (UniProt P08631); assay: as above
Sequence of Hck (P08631 whole entry, looked up): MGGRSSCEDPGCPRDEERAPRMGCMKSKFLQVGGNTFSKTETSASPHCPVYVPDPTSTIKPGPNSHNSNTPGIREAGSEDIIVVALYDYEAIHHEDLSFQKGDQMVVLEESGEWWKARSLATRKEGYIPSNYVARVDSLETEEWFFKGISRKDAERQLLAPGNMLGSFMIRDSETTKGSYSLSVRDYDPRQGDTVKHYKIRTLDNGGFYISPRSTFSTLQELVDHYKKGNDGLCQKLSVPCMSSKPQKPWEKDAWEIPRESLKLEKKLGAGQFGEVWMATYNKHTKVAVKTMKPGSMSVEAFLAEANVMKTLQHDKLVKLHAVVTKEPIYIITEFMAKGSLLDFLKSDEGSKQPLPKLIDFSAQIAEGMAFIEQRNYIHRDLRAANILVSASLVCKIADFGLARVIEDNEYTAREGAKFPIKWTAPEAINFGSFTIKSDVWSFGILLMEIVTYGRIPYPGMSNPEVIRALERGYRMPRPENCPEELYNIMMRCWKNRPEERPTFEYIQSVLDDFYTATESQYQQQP

[10] = molecular target: Jak2 (UniProt O60674); assay: as above
Sequence of Jak2 (O60674 whole entry, looked up): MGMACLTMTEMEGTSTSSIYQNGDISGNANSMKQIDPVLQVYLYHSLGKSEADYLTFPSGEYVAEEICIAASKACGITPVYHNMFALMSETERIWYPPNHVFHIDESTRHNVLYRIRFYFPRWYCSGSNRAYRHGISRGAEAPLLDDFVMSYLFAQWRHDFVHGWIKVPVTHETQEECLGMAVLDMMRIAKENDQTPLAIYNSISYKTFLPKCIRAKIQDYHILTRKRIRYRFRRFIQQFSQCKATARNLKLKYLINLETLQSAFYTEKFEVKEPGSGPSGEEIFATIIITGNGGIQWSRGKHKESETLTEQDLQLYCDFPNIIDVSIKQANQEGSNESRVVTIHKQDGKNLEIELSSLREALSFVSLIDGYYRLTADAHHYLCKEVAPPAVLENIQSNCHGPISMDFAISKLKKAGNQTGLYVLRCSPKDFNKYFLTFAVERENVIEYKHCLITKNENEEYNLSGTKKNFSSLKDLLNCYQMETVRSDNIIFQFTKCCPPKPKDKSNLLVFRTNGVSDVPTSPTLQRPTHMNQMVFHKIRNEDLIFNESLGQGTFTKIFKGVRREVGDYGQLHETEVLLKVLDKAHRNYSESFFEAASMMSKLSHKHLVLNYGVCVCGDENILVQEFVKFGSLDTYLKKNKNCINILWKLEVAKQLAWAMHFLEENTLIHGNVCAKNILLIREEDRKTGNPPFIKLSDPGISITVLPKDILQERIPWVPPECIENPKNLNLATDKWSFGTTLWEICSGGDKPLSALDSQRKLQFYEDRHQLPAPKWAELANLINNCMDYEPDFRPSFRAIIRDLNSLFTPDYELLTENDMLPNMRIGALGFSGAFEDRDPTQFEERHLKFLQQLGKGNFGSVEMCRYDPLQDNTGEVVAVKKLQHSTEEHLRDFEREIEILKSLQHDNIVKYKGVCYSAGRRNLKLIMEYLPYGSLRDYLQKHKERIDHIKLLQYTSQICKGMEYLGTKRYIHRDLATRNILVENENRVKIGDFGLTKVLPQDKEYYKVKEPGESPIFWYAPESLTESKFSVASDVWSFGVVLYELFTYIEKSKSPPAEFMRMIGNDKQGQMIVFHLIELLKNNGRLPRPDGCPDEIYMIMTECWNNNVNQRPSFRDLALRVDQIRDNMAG

[11] = molecular target: MERTK (UniProt Q12866); assay: as above
[12] = test system: c-Abl (mouse); assay: as above
[13] = test system: c-Src; assay: as above
[14] = molecular target: Grb2 SH2 (UniProt P62993); assay: SH2 binding enrichment of the phosphorylated peptide, bacterial display (enrichment ratio); higher = better substrate or ligand; peptides without Tyr show the background
[15] = molecular target: SHP2-C SH2; assay: as above
[16] = molecular target: c-Src SH2; assay: as above
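Throughout, for SH2 binding enrichment of the phosphorylated peptide, bacterial display: peptide library displayed on the E. coli surface as eCPX fusions, selected cells deep-sequenced, score is each peptide's frequency after selection divided by its frequency in the input.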
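Throughout, for phosphorylation enrichment, bacterial display: 11-residue human phosphosite peptides and single-mutation variants displayed on the E. coli surface, counted by deep sequencing, each peptide's frequency after selection divided by its frequency in the unselected input library; frequency after pTyr selection over input frequency; kinase dosed for 20-30% of maximal phosphorylation in three min.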

Sequence of EPHB1 (P54762 whole entry, looked up): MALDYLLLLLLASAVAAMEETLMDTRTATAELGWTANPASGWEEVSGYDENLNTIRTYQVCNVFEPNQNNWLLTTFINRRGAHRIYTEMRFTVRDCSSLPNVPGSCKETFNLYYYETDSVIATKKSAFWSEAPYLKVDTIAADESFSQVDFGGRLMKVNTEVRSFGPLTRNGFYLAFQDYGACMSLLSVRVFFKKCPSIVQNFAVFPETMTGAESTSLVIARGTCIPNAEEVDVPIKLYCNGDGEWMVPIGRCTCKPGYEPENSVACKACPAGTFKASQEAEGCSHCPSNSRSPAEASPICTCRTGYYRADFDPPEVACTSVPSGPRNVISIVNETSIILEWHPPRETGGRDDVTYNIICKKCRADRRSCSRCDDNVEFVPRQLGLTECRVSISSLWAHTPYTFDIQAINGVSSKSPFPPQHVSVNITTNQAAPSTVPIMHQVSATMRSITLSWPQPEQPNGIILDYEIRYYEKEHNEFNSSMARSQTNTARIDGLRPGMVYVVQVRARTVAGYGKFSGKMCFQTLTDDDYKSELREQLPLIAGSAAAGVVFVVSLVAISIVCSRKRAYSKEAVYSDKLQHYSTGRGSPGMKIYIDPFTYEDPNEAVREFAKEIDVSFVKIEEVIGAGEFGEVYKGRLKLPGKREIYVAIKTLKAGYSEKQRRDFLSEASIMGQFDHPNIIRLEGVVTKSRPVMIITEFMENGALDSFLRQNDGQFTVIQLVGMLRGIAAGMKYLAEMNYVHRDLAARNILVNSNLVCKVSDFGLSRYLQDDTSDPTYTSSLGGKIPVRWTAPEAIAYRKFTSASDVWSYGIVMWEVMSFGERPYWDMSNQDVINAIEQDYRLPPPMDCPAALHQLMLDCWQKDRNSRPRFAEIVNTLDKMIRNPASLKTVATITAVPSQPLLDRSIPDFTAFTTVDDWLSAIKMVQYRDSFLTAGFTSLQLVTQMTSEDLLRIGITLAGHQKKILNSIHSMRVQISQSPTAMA

Sequence | SH2 binding enrichment [14] | SH2 binding enrichment [15] | SH2 binding enrichment [16] | phosphorylation enrichment [1] | phosphorylation enrichment [2] | phosphorylation enrichment [3] | phosphorylation enrichment [4] | phosphorylation enrichment [5] | phosphorylation enrichment [6] | phosphorylation enrichment [7] | phosphorylation enrichment [8] | phosphorylation enrichment [9] | phosphorylation enrichment [10] | phosphorylation enrichment [11] | phosphorylation enrichment [12] | phosphorylation enrichment [13]
DEYLEYRRIVG [FAM221A_Y20] | 1.03 | 0.762 | 0.547 | 1.14 | 1.12 | 0.615 | 1.07 | 0.968 | 0.51 | 0.881 | 1.03 | 1.06 | 0.91 | 0.38 | 0.859 | 1.07
DESEDYRDTVV [CNNM3_Y456] | 0.901 | 0.587 | 0.439 | 1.46 | 0.975 | 0.931 | 0.677 | 1.13 | 0.78 | 1.59 | 0.623 | 0.765 | 1.4 | 0.633 | 0.897 | 0.662
GPIEVYLCPEE [E2F3_Y349] | 0.817 | 0.754 | 0.541 | 1.18 | 0.696 | 0.533 | 0.462 | 0.743 | 0.458 | 1.08 | 0.525 | 0.549 | 1.29 | 0.437 | 0.724 | 0.683
GLAELYEFQKK [CKAP5_Y1854_K1857Q_YF] | 0.666 | 0.473 | 0.795 | 0.973 | 0.59 | 0.564 | 0.539 | 0.94 | 0.656 | 0.857 | 0.64 | 1.23 | 0.58 | 0.526 | 0.428 | 0.937
DFSLKYATDIP [APC_Y1183_YF] | 0.781 | 0.737 | 0.457 | 0.914 | 0.606 | 0.619 | 0.592 | 0.668 | 0.536 | 1.08 | 0.524 | 0.47 | 0.897 | 0.374 | 0.572 | 0.378
RNDRVYQPLRD [CD3D_Y149_Q147R] | 0.845 | 0.727 | 0.943 | 0.604 | 0.629 | 0.432 | 0.41 | 0.616 | 0.475 | 0.785 | 0.675 | 5.18 | 0.509 | 0.786 | 0.689 | 1.55
EFISEHCGEII [EZH2_Y641_Y641H] | 0.831 | 0.784 | 0.633 | 1.35 | 0.733 | 0.644 | 0.544 | 0.722 | 0.652 | 1.31 | 0.639 | 0.602 | 1.17 | 0.658 | 0.806 | 0.56
QGLRLYRPHLA [BTK_Y617] | 1.4 | 1.04 | 0.988 | 1.16 | 0.515 | 0.697 | 0.501 | 0.76 | 0.542 | 1.12 | 0.461 | 0.437 | 1.15 | 0.382 | 0.775 | 0.438
DGMADYSDPSY [CDC5L_Y459] | 0.833 | 0.616 | 0.459 | 1.43 | 1.33 | 1.71 | 0.611 | 0.686 | 0.486 | 1.3 | 0.571 | 0.487 | 1.47 | 0.496 | 0.859 | 0.538
WHYTFYNELRV [ACTC1_Y93_H90Y] | 0.992 | 0.779 | 0.572 | 1.39 | 1.31 | 0.678 | 0.686 | 1.03 | 0.651 | 1.42 | 0.461 | 0.67 | 1.27 | 0.869 | 0.979 | 0.619

More lines, main results first:

SH2 binding enrichment [14] | SH2 binding enrichment [15] | SH2 binding enrichment [16] | Sequence | phosphorylation enrichment [1] | phosphorylation enrichment [2] | phosphorylation enrichment [3] | phosphorylation enrichment [4] | phosphorylation enrichment [5] | phosphorylation enrichment [6] | phosphorylation enrichment [7] | phosphorylation enrichment [8] | phosphorylation enrichment [9] | phosphorylation enrichment [10] | phosphorylation enrichment [11] | phosphorylation enrichment [12] | phosphorylation enrichment [13]
37.5 | 1.22 | 9.41 | YENGEYIIRQG [PRKG1_Y247] | 1.11 | 0.552 | 0.555 | 0.432 | 0.611 | 0.418 | 1.04 | 0.453 | 0.589 | 0.913 | 0.386 | 0.66 | 0.542
0.9 | 0.891 | 0.443 | SAAAIYTVRHP [PMP22_Y117] | 0.615 | 0.54 | 0.516 | 0.487 | 0.43 | 0.474 | 0.601 | 5.3 | 7.82 | 0.506 | 1.92 | 0.67 | 6.41
2.03 | 0.875 | 0.572 | VQSASYLNDCL [MCM3AP_Y864_A867D] | 0.788 | 0.536 | 0.602 | 0.757 | 0.712 | 0.487 | 0.97 | 0.448 | 0.502 | 0.798 | 0.447 | 0.693 | 0.422
1.06 | 0.808 | 1.02 | LITTLYIGFLG [KCNQ1_Y267] | 2.41 | 1.19 | 1.12 | 0.712 | 1.89 | 0.929 | 2.46 | 2.11 | 1.51 | 2.33 | 0.989 | 2.22 | 3.29
0.758 | 0.755 | 0.583 | RIDPDYVGRVR [IGSF9_Y81] | 0.871 | 0.534 | 0.402 | 0.496 | 0.482 | 0.384 | 0.702 | 0.481 | 0.403 | 0.778 | 0.405 | 0.65 | 0.563
0.79 | 0.968 | 0.985 | ADRSCYDLSCH [GARS1_Y467] | 0.92 | 0.486 | 0.528 | 0.433 | 0.586 | 0.431 | 0.91 | 0.604 | 0.561 | 0.798 | 0.457 | 0.631 | 0.472
1.03 | 0.765 | 0.723 | QAPPVYLDVLG [NTRK1_Y791] | 1.17 | 4.2 | 1.34 | 2.33 | 1.49 | 0.69 | 1.45 | 1.01 | 1.02 | 1.16 | 0.901 | 0.954 | 0.727
